Measured values published in patent US20030148958A1 (PROCTER AND GAMBLE, published 2003).
Ends that are not written are not given here.

T1: CRF2R
T1 sequence (Q13324 whole entry, species assumed, looked up): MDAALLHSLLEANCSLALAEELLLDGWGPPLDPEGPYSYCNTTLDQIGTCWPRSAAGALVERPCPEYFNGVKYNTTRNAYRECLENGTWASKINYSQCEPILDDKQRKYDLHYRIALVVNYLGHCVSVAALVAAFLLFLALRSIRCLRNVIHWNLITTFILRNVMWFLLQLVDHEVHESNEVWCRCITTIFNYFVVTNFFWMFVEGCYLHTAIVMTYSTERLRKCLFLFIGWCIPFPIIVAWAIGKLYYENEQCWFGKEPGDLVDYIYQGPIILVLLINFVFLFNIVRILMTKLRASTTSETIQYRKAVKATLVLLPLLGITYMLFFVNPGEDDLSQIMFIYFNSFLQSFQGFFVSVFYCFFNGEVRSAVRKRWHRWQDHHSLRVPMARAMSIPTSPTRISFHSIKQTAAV


Columns and labels:
CRF2R = biological target: T1, CRF2R; experiment: cell-based or functional assay
CRF1R = experiment: cell-based or functional assay
Throughout, for CRF1R Emax %: reference of the scale not given here.
Throughout, for CRF2R Emax %: reference of the scale not given here.

Binder	CRF2R EC50 (CRF2R) [nM]	CRF2R Emax % (CRF2R) [%]	CRF1R EC50 (CRF1R) [nM]	CRF1R Emax % (CRF1R) [%]
ZGPPISIDLPTWLLRKMIEIEKQEKEKQQAANNARLLARI (C-terminal amide) [SEQ ID NO 292]	100	86.1	1000	7
ZGPPISIDLPTALLRKMIEIEKQEKEKQQAANNRLLLDTI (C-terminal amide) [SEQ ID NO 301]	50.5	88.4	690	84.1
ZGPPISIDLPQILLRKVIEIEKQEKEKQQAANNARLLARI (C-terminal amide) [SEQ ID NO 294]	100	100	1000	13.6
ZGPPISIDLPIILLRKVIEIEKQEKEKQQAANNARLLARI (C-terminal amide) [SEQ ID NO 295]	55	67.6	1000	5.3
ZGPPISIDLPIFLLRKMIEIEKQEKEKQQAANNALLLATI (C-terminal amide) [SEQ ID NO 298]	82	98.8	1000	20.1
ZGPPISIDLPQILLRKVIEIEKQEKEKQQAANNALLLATI (C-terminal amide) [SEQ ID NO 299]	46.4	71.5	1000	10.2
ZGPPISIDLPQILLRKVIEIEKQEKEKQQAANNRLLLDTI (C-terminal amide) [SEQ ID NO 293]	40.3	87	520	95.3
ZGPPISIDLPFALLRKMIEIEKQEKEKQQAANNRLLLDTI (C-terminal amide) [SEQ ID NO 307]	5.82	96.5	78.4	92.7
ZGPPISIDLPQALLRKMIEIEKQEKEKQQAANNRLLLDTI (C-terminal amide) [SEQ ID NO 302]	36.2	100	366	100
ZGPPISIDLPIILLRKVIEIEKQEKEKQQAANNRLLLDTI (C-terminal amide) [SEQ ID NO 297]	100	88.3	1000	27.2
ZGPPISIDLPIALLRKMIEIEKQEKEKQQAANNRLLLDTI (C-terminal amide) [SEQ ID NO 306]	27.6	100	608	97.7
ZGPPISIDLPHALLRKMIEIEKQEKEKQQAANNRLLLDTI (C-terminal amide) [SEQ ID NO 304]	19.3	92.5	116	100
ZGPPISIDLPAALLRKMIEIEKQEKEKQQAANNRLLLDTI (C-terminal amide) [SEQ ID NO 303]	27.2	100	582	100
ZGPPISIDLPVALLRKMIEIEKQEKEKQQAANNRLLLDTI (C-terminal amide) [SEQ ID NO 305]	35.5	95.2	1000	59.5
IVLSLDVPIGLLQKVIEIEKQEKEKQQATTNARILARV-NH2 [SEQ ID NO 300]	17.1	100	1000	7.95
HHHHHHIVLSLDVPIGLLQILLEQARARAAREQATTNARILARN-NH2 [SEQ ID NO 296]	6.66	65	100	4

Now from value to binder:

CRF2R EC50 (CRF2R) [nM]	CRF2R Emax % (CRF2R) [%]	CRF1R EC50 (CRF1R) [nM]	CRF1R Emax % (CRF1R) [%]	Binder
19.1	100	718	68.8	ZGPPISIDLPLQLLRKVIEIEKQEKEKQQATTNARILARV (C-terminal amide) [SEQ ID NO 320]
19.6	86.8	1000	33.8	ZGPPISIDLPFQLLRKTIEIEKQEKEKQQATTNARLLDRV (C-terminal amide) [SEQ ID NO 321]
11.7	100	100	5	IVLSLDVPIGLLQILLEQEKARAAREQATTNARILARV-NH2 [SEQ ID NO 325]
19.6	100	1000	36.9	DNPSLSIDLPLLLLRTLLELEKTQSQRERAEQNAEIFAEV-NH2 [SEQ ID NO 323]
11.7	100	1000	29.7	ZGPPISIDLPYWLLRKVIEIEKQEKEKQQAANNALLLDTI (C-terminal amide) [SEQ ID NO 311]
8.5	95	106	88.3	ZGPPISIDLPFFLLRKMIEIEKQEKEKQQAANNALLLATI (C-terminal amide) [SEQ ID NO 319]
9.95	95.4	134	92.8	ZGPPISIDLPFFLLRKMIEIEKQEKEKQQAANNALLLDTI (C-terminal amide) [SEQ ID NO 318]
10.3	99.8	978	82.4	ZGPPISIDLPYHLLRKMIEIEKQEKEKQQAANNALLLDTI (C-terminal amide) [SEQ ID NO 314]
11.1	95	704	87.1	ZGPPISIDLPYHLLRKVIEIEKQEKEKQQAANNALLLATI (C-terminal amide) [SEQ ID NO 313]
9.3	88.3	188	100	ZGPPISIDLPFFLLRKVIEIEKQEKEKQQAANNALLLATI (C-terminal amide) [SEQ ID NO 317]
8.7	87.5	1000	45.3	ZGPPISIDLPYWLLRKMIEIEKQEKEKQQAANNALLLDTI (C-terminal amide) [SEQ ID NO 310]
10.2	94.5	222	92.3	ZGPPISIDLPFFLLRKVIEIEKQEKEKQQAANNALLLDTI (C-terminal amide) [SEQ ID NO 316]
14.1	95	870	62	ZGPPISIDLPYHLLRKVIEIEKQEKEKQQAANNALLLDTI (C-terminal amide) [SEQ ID NO 312]
5.55	99.9	108	96.3	ZGPPISIDLPYALLRKMIEIEKQEKEKQQAANNRLLLDTI (C-terminal amide) [SEQ ID NO 309]
3.3	72.8	63.5	100	ZGPPISIDLPLALLRKMIEIEKQEKEKQQAANNRLLLDTI (C-terminal amide) [SEQ ID NO 308]
23.1	96.5	1000	10.7	IVLSLDVPIGLLQKMIEIEKQEKEKQQATTNARILARV-NH2 [SEQ ID NO 322]
33.7	100	1000	30.1	DNPSLSIDLPLLLLRTLLELEKTQSQRERAEQNANIFANV-NH2 [SEQ ID NO 326]
9.35	81.7	454	100	ZGPPISIDLPYHLLRKMIEIEKQEKEKQQAANNALLLAT (C-terminal amide) [SEQ ID NO 315]
17.2	100	1000	46.6	DNPSLSIDLPLLLLRTLLELEKTQSQRERAEQNAQIFAHV-NH2 [SEQ ID NO 324]
28.4	100	1000	36.5	DNPSLSIDLPLLLLRTLLELEKTQSQRERAEQNAQIFAQV-NH2 [SEQ ID NO 327]
